# Results published in the supplement of paper PMC10266784.
# B1: library; numbered along this chain (parent)
# chain: MAAAAAAAAEQQSSNGPVKKSMREKAVERRSVNKEHNSNFKAGYIPIDEDRLHKTGLRGRKGNLAICVIILLFILAVINLIITLVIWAVIRIGPNGCDSMEFHESGLLRFKQVSDMGVIHPLYKSTVGGRRNENLVITGNNQPIVFQQGTTKLSVENNKTSITSDIGMQFFDPRTQNILFSTDYETHEFHLPSGVKSLNVQKASTERITSNATSDLNIKVDGRAIVRGNEGVFIMGKTIEFHMGGNMELKAENSIILNGSVMVSTTRLPSSSSGDQLGSGDWVRYKLCMCADGTLFKVQVTSQNMGCQISDNPCGNTH
# Variants of: B1
# Assay: SGCB cell-surface expression functional score (HA stain, bin4 vs bin1, normalised to synonymous) (log10 ratio); higher = more cell-surface SGCB (functional)
# Description: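 Deep mutational scan of full-length human SGCB (YFP-SGCB-HA, NNN codon sublibraries A-F) delivered by lentivirus at low MOI into ADG-HEK293 cells stably expressing SGCA, SGCD and SGCG. YFP-positive cells were stained for surface HA on unpermeabilized cells and FACS-sorted into bins. The functional score is log10(frequency in high bin 4 / frequency in low bin 1), normalised per chunk so that synonymous variants have mean 0 and SD 0.5. Scores are the median over codons and over duplicate biological replicates; scores below -0.5 are called non-functional. Scale: negative means deleterious.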
row,Variant,SGCB cell-surface expression functional score (log10)
1,MASAAAAAAEQQSSNGPVKKSMREKAVERRSVNKEHNSNFKAGYIPIDEDRLHKTGLRGRKGNLAICVIILLFILAVINLIITLVIWAVIRIGPNGCDSMEFHESGLLRFKQVSDMGVIHPLYKSTVGGRRNENLVITGNNQPIVFQQGTTKLSVENNKTSITSDIGMQFFDPRTQNILFSTDYETHEFHLPSGVKSLNVQKASTERITSNATSDLNIKVDGRAIVRGNEGVFIMGKTIEFHMGGNMELKAENSIILNGSVMVSTTRLPSSSSGDQLGSGDWVRYKLCMCADGTLFKVQVTSQNMGCQISDNPCGNTH [A3S],-0.23
2,MAEAAAAAAEQQSSNGPVKKSMREKAVERRSVNKEHNSNFKAGYIPIDEDRLHKTGLRGRKGNLAICVIILLFILAVINLIITLVIWAVIRIGPNGCDSMEFHESGLLRFKQVSDMGVIHPLYKSTVGGRRNENLVITGNNQPIVFQQGTTKLSVENNKTSITSDIGMQFFDPRTQNILFSTDYETHEFHLPSGVKSLNVQKASTERITSNATSDLNIKVDGRAIVRGNEGVFIMGKTIEFHMGGNMELKAENSIILNGSVMVSTTRLPSSSSGDQLGSGDWVRYKLCMCADGTLFKVQVTSQNMGCQISDNPCGNTH [A3E],0.2
3,MANAAAAAAEQQSSNGPVKKSMREKAVERRSVNKEHNSNFKAGYIPIDEDRLHKTGLRGRKGNLAICVIILLFILAVINLIITLVIWAVIRIGPNGCDSMEFHESGLLRFKQVSDMGVIHPLYKSTVGGRRNENLVITGNNQPIVFQQGTTKLSVENNKTSITSDIGMQFFDPRTQNILFSTDYETHEFHLPSGVKSLNVQKASTERITSNATSDLNIKVDGRAIVRGNEGVFIMGKTIEFHMGGNMELKAENSIILNGSVMVSTTRLPSSSSGDQLGSGDWVRYKLCMCADGTLFKVQVTSQNMGCQISDNPCGNTH [A3N],0.29
4,MAMAAAAAAEQQSSNGPVKKSMREKAVERRSVNKEHNSNFKAGYIPIDEDRLHKTGLRGRKGNLAICVIILLFILAVINLIITLVIWAVIRIGPNGCDSMEFHESGLLRFKQVSDMGVIHPLYKSTVGGRRNENLVITGNNQPIVFQQGTTKLSVENNKTSITSDIGMQFFDPRTQNILFSTDYETHEFHLPSGVKSLNVQKASTERITSNATSDLNIKVDGRAIVRGNEGVFIMGKTIEFHMGGNMELKAENSIILNGSVMVSTTRLPSSSSGDQLGSGDWVRYKLCMCADGTLFKVQVTSQNMGCQISDNPCGNTH [A3M],0.11
5,MAIAAAAAAEQQSSNGPVKKSMREKAVERRSVNKEHNSNFKAGYIPIDEDRLHKTGLRGRKGNLAICVIILLFILAVINLIITLVIWAVIRIGPNGCDSMEFHESGLLRFKQVSDMGVIHPLYKSTVGGRRNENLVITGNNQPIVFQQGTTKLSVENNKTSITSDIGMQFFDPRTQNILFSTDYETHEFHLPSGVKSLNVQKASTERITSNATSDLNIKVDGRAIVRGNEGVFIMGKTIEFHMGGNMELKAENSIILNGSVMVSTTRLPSSSSGDQLGSGDWVRYKLCMCADGTLFKVQVTSQNMGCQISDNPCGNTH [A3I],-0.02
6,MAGAAAAAAEQQSSNGPVKKSMREKAVERRSVNKEHNSNFKAGYIPIDEDRLHKTGLRGRKGNLAICVIILLFILAVINLIITLVIWAVIRIGPNGCDSMEFHESGLLRFKQVSDMGVIHPLYKSTVGGRRNENLVITGNNQPIVFQQGTTKLSVENNKTSITSDIGMQFFDPRTQNILFSTDYETHEFHLPSGVKSLNVQKASTERITSNATSDLNIKVDGRAIVRGNEGVFIMGKTIEFHMGGNMELKAENSIILNGSVMVSTTRLPSSSSGDQLGSGDWVRYKLCMCADGTLFKVQVTSQNMGCQISDNPCGNTH [A3G],0.02
7,MADAAAAAAEQQSSNGPVKKSMREKAVERRSVNKEHNSNFKAGYIPIDEDRLHKTGLRGRKGNLAICVIILLFILAVINLIITLVIWAVIRIGPNGCDSMEFHESGLLRFKQVSDMGVIHPLYKSTVGGRRNENLVITGNNQPIVFQQGTTKLSVENNKTSITSDIGMQFFDPRTQNILFSTDYETHEFHLPSGVKSLNVQKASTERITSNATSDLNIKVDGRAIVRGNEGVFIMGKTIEFHMGGNMELKAENSIILNGSVMVSTTRLPSSSSGDQLGSGDWVRYKLCMCADGTLFKVQVTSQNMGCQISDNPCGNTH [A3D],0.14
8,MATAAAAAAEQQSSNGPVKKSMREKAVERRSVNKEHNSNFKAGYIPIDEDRLHKTGLRGRKGNLAICVIILLFILAVINLIITLVIWAVIRIGPNGCDSMEFHESGLLRFKQVSDMGVIHPLYKSTVGGRRNENLVITGNNQPIVFQQGTTKLSVENNKTSITSDIGMQFFDPRTQNILFSTDYETHEFHLPSGVKSLNVQKASTERITSNATSDLNIKVDGRAIVRGNEGVFIMGKTIEFHMGGNMELKAENSIILNGSVMVSTTRLPSSSSGDQLGSGDWVRYKLCMCADGTLFKVQVTSQNMGCQISDNPCGNTH [A3T],0.17
9,MACAAAAAAEQQSSNGPVKKSMREKAVERRSVNKEHNSNFKAGYIPIDEDRLHKTGLRGRKGNLAICVIILLFILAVINLIITLVIWAVIRIGPNGCDSMEFHESGLLRFKQVSDMGVIHPLYKSTVGGRRNENLVITGNNQPIVFQQGTTKLSVENNKTSITSDIGMQFFDPRTQNILFSTDYETHEFHLPSGVKSLNVQKASTERITSNATSDLNIKVDGRAIVRGNEGVFIMGKTIEFHMGGNMELKAENSIILNGSVMVSTTRLPSSSSGDQLGSGDWVRYKLCMCADGTLFKVQVTSQNMGCQISDNPCGNTH [A3C],-0.24
